T1: ADAM10 D+C domains construct (species not named for the experiment) (Bos taurus, assumed)
T1 chain: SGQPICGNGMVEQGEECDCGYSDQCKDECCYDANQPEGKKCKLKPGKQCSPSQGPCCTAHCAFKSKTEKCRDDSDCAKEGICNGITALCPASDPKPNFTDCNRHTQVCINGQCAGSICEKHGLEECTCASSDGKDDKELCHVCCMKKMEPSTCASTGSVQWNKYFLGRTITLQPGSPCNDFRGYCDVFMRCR


Experiments:
[1] = biological target: T1, ADAM10 D+C domains construct (species …); test: ELISA
[2] = biological target: human ADAM19 D+C construct (438-646) (Homo sapiens, UniProt Q9H013); test: ELISA
[3] = biological target: human ADAM17 D+C (482-648) (Homo sapiens, UniProt P78536); test: ELISA
[4] = biological target: full recombinant ADAM10 ECD (species not named for the experiment) (Bos taurus, assumed, UniProt Q10741); test: BLI
full recombinant ADAM10 ECD (species not named for the experiment), sequence (Q10741 20-672): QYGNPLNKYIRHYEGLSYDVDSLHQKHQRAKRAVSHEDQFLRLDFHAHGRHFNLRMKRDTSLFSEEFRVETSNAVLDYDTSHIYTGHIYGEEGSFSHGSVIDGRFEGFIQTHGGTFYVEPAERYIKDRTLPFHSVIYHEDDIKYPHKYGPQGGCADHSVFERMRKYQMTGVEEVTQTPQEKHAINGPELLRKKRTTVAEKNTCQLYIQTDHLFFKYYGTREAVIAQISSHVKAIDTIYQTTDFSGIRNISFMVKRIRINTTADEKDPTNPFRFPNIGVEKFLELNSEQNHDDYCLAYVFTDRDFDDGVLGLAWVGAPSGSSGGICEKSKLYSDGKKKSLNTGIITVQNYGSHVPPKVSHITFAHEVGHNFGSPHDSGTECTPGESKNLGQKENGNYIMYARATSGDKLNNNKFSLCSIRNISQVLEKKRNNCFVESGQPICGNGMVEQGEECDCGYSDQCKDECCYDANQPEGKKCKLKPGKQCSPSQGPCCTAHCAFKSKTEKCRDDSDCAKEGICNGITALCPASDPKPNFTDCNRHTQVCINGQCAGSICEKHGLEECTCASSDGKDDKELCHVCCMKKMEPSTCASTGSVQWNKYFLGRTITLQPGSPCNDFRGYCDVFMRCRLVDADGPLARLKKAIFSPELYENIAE

human ADAM19 D+C construct (438-646), sequence (Q9H013 438-646): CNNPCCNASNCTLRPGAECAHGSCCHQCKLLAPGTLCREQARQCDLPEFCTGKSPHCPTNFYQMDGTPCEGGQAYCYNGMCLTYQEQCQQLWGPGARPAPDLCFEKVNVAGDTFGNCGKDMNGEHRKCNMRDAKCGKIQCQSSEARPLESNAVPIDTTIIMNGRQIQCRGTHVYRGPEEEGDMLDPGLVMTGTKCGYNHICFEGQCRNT
human ADAM17 D+C (482-648), sequence (P78536 482-648): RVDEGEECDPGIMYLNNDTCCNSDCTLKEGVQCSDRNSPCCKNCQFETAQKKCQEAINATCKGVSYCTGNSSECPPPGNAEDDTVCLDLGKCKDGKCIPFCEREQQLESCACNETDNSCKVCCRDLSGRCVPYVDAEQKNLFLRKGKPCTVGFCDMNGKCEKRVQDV

| binding result [1] | binding result [2] | binding result [3] | Kd [4] [nM] | Binder |
| --- | --- | --- | --- | --- |
| binds | – | – | – | murine anti-ADAM10 monoclonal antibody 8C7 (IgG) (antibody, V domains shown) VH: QVQLEESGAELARPGSSVKLSCKASGYTFTNYWLQWVKQRTGQGLEWIGAIYPRDGDAKYSQKFKDKASLTVNESSSTAYMHLSALASEDSAVYYCARANYGLYYAMDRWGQGTSVTVSS VL: DIFLTQSPANMSVSPGERVSFSCRASQNIGTNIHWYQQRTNGSPRLLIKYASESISGIPSRFSGSGSGTDFILSINTVESEDIAVYFCQQSNRWPFTFGSGTKLEVI |
| – | no binding | no binding | ~200 | fully human anti-ADAM10 monoclonal antibody 1H5 (IgG) (antibody, V domains shown) VH: QVQLVESGGGLVKPGGSLRLSCAASGFTFSDYYMSWIRQAPGKGLEWVSYISSSGSTIYYADSVKGRFTISRDNAKNSLYLQMNSLRAEDTAVYYCARDFYDSKIFDYWGQGTLVTVSS VL: DIQMTQSPSSLSASVGDRVTITCRASQSISSYLNWYQQKPGKAPKLLIYAASSLQSGVPSRFSGSGSGTDFTLTISSLQPEDVGVYYCMEGLKTPFTFGPGTKLEIK |
